Reference: paper PMC9191654

How the values were obtained:
[1] = molecular target: anti-OX40 antibody 1A7 with the Fc hexamer variant E345R/E430G/S440Y (RGY); assay: SEC
[2] = molecular target: anti-OX40 antibody 1A7 with the κ3-11(49–61) light chain graft and the Fc hexamer variant E345R/E430G/S440Y (RGY); assay: SEC

stoichiometry N [1]	stoichiometry N [2]	Binder
6		anti-OX40 antibody 1A7 with the Fc hexamer variant E345R/E430G/S440Y (RGY) (antibody, V domains shown) VH: EVQLVQSGAEVKKPGASVKVSCKASGYTFTDSYMSWVRQAPGQGLEWIGDMYPDNGDSSYNQKFRERVTITRDTSTSTAYLELSSLRSEDTAVYYCVLAPRWYFSVWGQGTLVTVSS VL: DIQMTQSPSSLSASVGDRVTITCRASQDISNYLNWYQQKPGKAPKLLIYYTSRLRSGVPSRFSGSGSGTDFTLTISSLQPEDFATYYCQQGHTLPPTFGQGTKVEIK
	6	anti-OX40 antibody 1A7 with the κ3-11(49–61) light chain graft and the Fc hexamer variant E345R/E430G/S440Y (RGY) (antibody, V domains shown) VH: EVQLVQSGAEVKKPGASVKVSCKASGYTFTDSYMSWVRQAPGQGLEWIGDMYPDNGDSSYNQKFRERVTITRDTSTSTAYLELSSLRSEDTAVYYCVLAPRWYFSVWGQGTLVTVSS VL: DIQMTQSPSSLSASVGDRVTITCRASQDISNYLNWYQQKPGKAPKLLIYDASNRATGIPARFSGSGSGTDFTLTISSLQPEDFATYYCQQGHTLPPTFGQGTKVEIK
